Measured values from paper PMC5524982.

Tests used:
[1] = target: Proteus mirabilis ScsC (PmScsC), wild type, lacking the predicted secretion signal (Proteus mirabilis); assay: SAXS; reduced PmScsC in 25 mM HEPES pH 7.5, 150 mM NaCl, 1 mM DTT; Australian Synchrotron SAXS-WAXS beamline; also pH 6.0-8.0 and 150-1,500 mM NaCl
[2] = target: Proteus mirabilis ScsC (PmScsC), wild type, lacking the predicted secretion signal (Proteus mirabilis); assay: crystal structure; transitional structure: oxidized PmScsC, 2.85 M sodium malonate pH 5.8 with 0.1 M copper(II) chloride, 20 °C; 6 molecules (two trimers) in the asymmetric unit
[3] = target: Proteus mirabilis ScsC (PmScsC), wild type, lacking the predicted secretion signal (Proteus mirabilis); assay: cross-linking; 150 μM purified PmScsC in 50 mM HEPES pH 8.5 with 3 mM DTSSP, 30 s–30 min, 23 °C; non-reducing SDS-PAGE, Coomassie; 50 mM DTT as control cleaves the cross-links
[4] = target: Proteus mirabilis ScsC (PmScsC), wild type, lacking the predicted secretion signal (Proteus mirabilis); assay: SEC-MALS; Superdex 200 or Superdex 75 10/300 GL, 25 mM Tris, 150 mM NaCl, pH 7.5; 500 μl of 3 mg ml^-1 injected, 1.0 ml min^-1
[5] = target: Proteus mirabilis ScsC (PmScsC), wild type, lacking the predicted secretion signal (Proteus mirabilis); assay: crystal structure; extended structure: oxidized PmScsC with 2.5 mM copper(II) chloride, 32% Jeffamine M-600 pH 7, 0.1 M HEPES pH 8, 20 °C; one molecule in the asymmetric unit, trimer generated by crystal symmetry
[6] = target: Selenomethionine-labelled PmScsC (Proteus mirabilis); assay: crystal structure; compact structure: selenomethionine-labelled PmScsC, 2.85 M sodium malonate pH 5.8 with 0.1 M cobalt(II) chloride, 20 °C; 24 copies (8 trimers) in the asymmetric unit

Measured: stoichiometry N

Proteus mirabilis ScsC (PmScsC), wild type, lacking the predicted secretion signal (enzyme)
not listed: [6]
3: all other assays above

Selenomethionine-labelled PmScsC (enzyme)
3: [6]
